Experimental data taken from IntAct's records for PubMed 20935634.

B1: Tumor necrosis factor receptor superfamily member 6 (Homo sapiens), P25445-1 (parent)
chain: MLGIWTLLPLVLTSVARLSSKSVNAQVTDINSKGLELRKTVTTVETQNLEGLHHDGQFCHKPCPPGERKARDCTVNGDEPDCVPCQEGKEYTDKAHFSSKCRRCRLCDEGHGLEVEINCTRTQNTKCRCKPNFFCNSTVCEHCDPCTKCEHGIIKECTLTSNTKCKEEGSRSNLGWLCLLLLPIPLIVWVKRKEVQKTCRKHRKENQGSHESPTLNPETVAINLSDVDLSKYITTIAGVMTLSQVKGFVRKNGVNEAKIDEIKNDNVQDTAEQKVQLLRNWHQLHGKKEAYDTLIKDLKKANLCTLAEKIQTIILKDITSDSENSNFRNEIQSLV
B2: FAS-associated death domain protein (Homo sapiens), Q13158 (parent)
chain: MDPFLVLLHSVSSSLSSSELTELKFLCLGRVGKRKLERVQSGLDLFSMLLEQNDLEPGHTELLRELLASLRRHDLLRRVDDFEAGAAAGAAPGEEDLCAAFNVICDNVGKDWRRLARQLKVSDTKIDSIEDRYPRNLTERVRESLRIWKNTEKENATVAHLVGALRSCQMNLVADLVQEVQQARDLQNRSGAMSPMSWNSDASTSEAS

Variants of: B1
Conditions: with fadd_human FADD

Variant | effect of a mutation on the interaction
K287D | disrupting interaction
D260Y | disrupting interaction
Q283K | disrupting interaction
E272K | disrupting interaction
E261K | disrupting interaction
R250Q | decreasing interaction strength
R250E | disrupting interaction strength
T270K | disrupting interaction
A257D | disrupting interaction

Variants of: B1
Conditions: with fadd_human FADD
Remark: another data set of the same source

Variant | effect of a mutation on the interaction
D260Y | disrupting interaction strength
D260V | disrupting interaction strength
R250E | decreasing interaction

Variants of: B2
Conditions: with FAS

Variant | effect of a mutation on the interaction
D123R | disrupting interaction
L172K | disrupting interaction
R135E | disrupting interaction
R142E | disrupting interaction
R117E | disrupting interaction
D175K | disrupting interaction

Variants of: B2
Conditions: with FAS
Remark: another data set of the same source

Variant | effect of a mutation on the interaction
D123R | decreasing interaction
L172E | disrupting interaction
R135E | decreasing interaction
R142E | decreasing interaction
K153E | decreasing interaction
